This data set can be described thus: Solubility in water according to DAB 10. It counts as physicochemical. An excerpt: The solubility in water for the active substance and the substance or substances forming the lipophilic matrix can be defined as specified in DAB 10 (Deutsches Arzneibuch, 10th edition with 3rd supplement 1994, Deutscher Apothekerverlag, Stuttgart und Govi Verlag, Frankfurt/Main, 2nd supplement (1993), IV Allgemeine Vorschriften, pp. 5-6, “Löslichkeit und Lösungsmittel”; see also Ph. Eur. Jul. 4, 2004). The solubility is defined by the number of parts by volume of solvent for 1 part by weight of substance or drug. The definition of “sparingly soluble” includes substances which require from 30 to 100 parts by volume of solvent for 1 part by weight of substance or drug, and the definition of “slightly soluble” includes substances which require from 100 to 1000 parts by volume of solvent for 1 part by weight of substance or drug.

The record followed here is US8734849B2, “Multiparticle pharmaceutical dosage form containing a mucoadhesively formulated peptide or protein active substances method for producing said pharmaceutical dosage form” (Evonik Roehm GmbH, priority 2003, dated 2014).

By solubility is commonly meant how much of the substance goes into solution per volume.

Where a SMILES comes first, the peptide text is derived from it. [ ]: non-standard residue; d: D form. dPhe(4-Cl) = N[C@H](Cc1ccc(Cl)cc1)C(=O)O; d2Nal = N[C@H](Cc1ccc2ccccc2c1)C(=O)O; dCit = NC(=O)NCCC[C@@H](N)C(=O)O; d3Pal = N[C@H](Cc1cccnc1)C(=O)O

As for “Erythropoetin alfa: slightly soluble protein active substance”, the “solubility in water according to DAB 10” value was “at least 500 parts of water for 1 part of active substance” and the “solubility in water, equivalent” value was found to be 2000 µg/mL.
As for `CC(=O)N[C@H](Cc1ccc2ccccc2c1)C(=O)N[C@H](Cc1ccc(Cl)cc1)C(=O)N[C@H](Cc1cccnc1)C(=O)N[C@@H](CO)C(=O)N[C@@H](Cc1ccc(O)cc1)C(=O)N[C@H](CCCNC(N)=O)C(=O)N[C@@H](CC(C)C)C(=O)N[C@@H](CCCNC(=N)N)C(=O)N1CCC[C@H]1C(=O)N[C@H](C)C(N)=O` [Cetrorelix acetate] (Ac-[d2Nal][dPhe(4-Cl)][d3Pal]SY[dCit]LRP[dA]-NH2), the “solubility in water according to DAB 10” value is “at least 1000 parts of water for 1 part of active substance”. In addition, for the setting “equivalent of the DAB 10 parts”, the solubility turned out to be 1000 µg/mL.
